Measurements as given in US20220251184A1.

How the values were obtained:
[1] = target: human BMP6 (R&D Systems, Cat #507-BP) (human) (UniProt P22004); assay: SPR (Biacore 3000), blocking of hBMP6 binding to immobilised hActR2A-hFc (competitor) by 400 nM mAb, 25 C
[2] = target: human BMP6 (R&D Systems, Cat #507-BP) (human) (UniProt P22004); assay: SPR (Biacore 3000), blocking of hBMP6 binding to immobilised hHJV-hFc (competitor) by 400 nM mAb, 25 C
[3] = target: human BMP6 (R&D Systems, Cat #507-BP) (human) (UniProt P22004); assay: SPR (MASS-1), mAb captured on anti-human Fc, hBMP6 in solution, 37 C
[4] = target: mouse BMP6 (R&D Systems, Cat #6325-BM) (mouse) (UniProt P20722); assay: SPR (MASS-1), mAb captured on anti-human Fc, mBMP6 in solution, 37 C
Sequence of mouse BMP6 (R&D Systems, Cat #6325-BM) (mouse) (P20722 372-510 limits assumed): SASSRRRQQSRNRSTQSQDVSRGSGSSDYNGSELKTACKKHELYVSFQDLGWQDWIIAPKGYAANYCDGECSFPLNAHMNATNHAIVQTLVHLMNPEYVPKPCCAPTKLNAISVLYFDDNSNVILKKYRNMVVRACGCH

[5] = target: human BMP6 (R&D Systems, Cat #507-BP) (human) (UniProt P22004); assay: SPR (Biacore 3000), premix of 400 nM mAb and 10 nM hBMP6 over immobilised hActR2A-hFc (competitor), 25 C
[6] = target: human BMP6 (R&D Systems, Cat #507-BP) (human) (UniProt P22004); assay: SPR (Biacore 3000), premix of 400 nM mAb and 10 nM hBMP6 over immobilised hHJV-hFc (competitor), 25 C
[7] = target: mouse BMP6 (R&D Systems, Cat #6325-BM) (mouse) (UniProt P20722); assay: SPR (MASS-1), mAb captured on anti-human Fc, mBMP6 in solution, 25 C
[8] = target: human BMP6 (R&D Systems, Cat #507-BP) (human) (UniProt P22004); assay: SPR (MASS-1), mAb captured on anti-human Fc, hBMP6 in solution, 25 C
[9] = target: human BMP6 (R&D Systems, Cat #507-BP) (human) (UniProt P22004); assay: SPR (Biacore 3000), blocking of hBMP6 binding to immobilised hActR2B-hFc (competitor) by 400 nM mAb, 25 C
[10] = target: human BMP6 (R&D Systems, Cat #507-BP) (human) (UniProt P22004); assay: SPR (Biacore 3000), premix of 400 nM mAb and 10 nM hBMP6 over immobilised hActR2B-hFc (competitor), 25 C

Sequence of human BMP6 (R&D Systems, Cat #507-BP) (human) (P22004 375-513 limits assumed): as the sequence (P20722 372-510 limits assumed) above, with S21A, G23V, G25S, S26A, G31S, K39R counted along it

- % Blocking [1]: 43%
- % Blocking [2]: 41%
- 60 nM hBMP6 Bound (RU) [3]: 2 RU
- 60 nM mBMP6 Bound (RU) [4]: 3 RU
- 400 nM mAb + 10 nM hBMP-6 Binding (RU) [5]: 246 RU
- 400 nM mAb + 10 nM hBMP-6 Binding (RU) [6]: 299 RU
- 60 nM mBMP6 Bound (RU) [7]: 3 RU
- 60 nM hBMP6 Bound (RU) [8]: 2 RU
- % Blocking [9]: 25%
- 400 nM mAb + 10 nM hBMP-6 Binding (RU) [10]: 187 RU
Substance: Isotype Control mAb (antibody)
